# ± gives the standard error. This sample holds only a part of the variants without activity.
# B1: glmS ribozyme (parent)
# chain: AUAAAAGCGCCAGAACUACAGAAAUGUAGUUGACGAGGAGGAGGUUUAUCGAAUUUUCGGCGGAUGCCUCCAAA
# Variants of: B1
# Experiment: self-cleavage kobs at 10000 uM GlcN6P; higher = faster cleavage; RNA array
# Conditions: with glucosamine-6-phosphate
# Summary of the method: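 E. coli RNA polymerase transcribed barcoded ribozyme variants in situ on sequenced MiSeq chips, which were tracked via a hybridised Cy3 probe at 37 °C. Tiles were imaged over ~14 h after glucosamine-6-phosphate (40 μM to 10 mM) in HEPES/KCl/Mg(OAc)2 buffer was flowed in. Normalised per-tile medians were fit to one- or two-exponential decays for kobs, and kcat and KM came from weighted Michaelis–Menten fits.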
row,Variant,self-cleavage kobs at 10000 uM GlcN6P [s⁻¹]
1,A52U U55G A64U,< 1e-05
2,G43A C71G,< 1e-05
3,A12C G62U C71U,< 1e-05
4,C11G C61G,< 1e-05
5,A6U G44U C71A,< 1e-05
6,G7U G29U G32A A42U U55C G62C,< 1e-05
7,A15C C16A G37U G40U G62U C70A,< 1e-05
8,A14C U31C G41A,7.28e-05 ± 1.8e-05
9,A12G G63C C70U,< 1e-05
10,A12U U46G A48G,9.42e-05 ± 2.1e-05
11,U54C G66C,0.00113 ± 0.00015
12,A6G G29A G60C G63C,< 1e-05
13,C10U C50G A53U U54G U55C C68G,6.48e-05 ± 2e-05
14,U65G G66U C70A,6.2e-05 ± 1.7e-05
15,C10A A36U G59A G60A,< 1e-05
16,A6G A12C A33G U45A G62U,< 1e-05
17,A15C A64G C67G C68U,< 1e-05
18,U31C C67G C70A,< 1e-05
19,G59A C68G C70U,< 1e-05
20,C11G G38A A48C G60C G62C C68U,< 1e-05
21,G40U G43U G62A,< 1e-05
22,U31C G38C U45A C50A C58U,< 1e-05
23,C10A A15C A42C U55G C68U,< 1e-05
24,A53C U55G C67U,0.00164 ± 0.00038

row,Variant,self-cleavage kobs at 10000 uM GlcN6P [s⁻¹]
1,A14U G32U U46C,4.16e-05 ± 1.4e-05
2,A39G U49G,0.000904 ± 0.00021
3,G13U U30A C58U G59U,< 1e-05
4,C16A U30C A53C C70G,< 1e-05
5,C11A A12C U31C U49A,< 1e-05
6,A14C G44A U45A,7.22e-05 ± 2.3e-05
7,G29C G44A C58G,< 1e-05
8,U30A G38C,< 1e-05
9,U30G G35U G43C,< 1e-05
10,A15U G40U U54A,7.33e-05 ± 1.6e-05
11,A39G U65G C70U,0.0203 ± 0.0059
12,G35C A42U C71U,< 1e-05
13,A53G C58U C70U,0.000123 ± 2.7e-05
14,G44U G66C C71A,< 1e-05
15,A33G A42G G59U C61A,< 1e-05
16,U46A C50A G59U,< 1e-05
17,A36C A39U C67U,< 1e-05
18,A42U G44C G62U C70G,< 1e-05
19,G9C A39U A42U,< 1e-05
20,A6C C50G A64U,3.95e-05 ± 2e-05
21,A12U G41A U54C,0.000963 ± 0.00021
22,C11U U47A U69A,4.5e-05 ± 1.5e-05
23,A14U A36G A64G C70G,< 1e-05
24,U54A C58U,6.81e-05 ± 1e-05

row,Variant,self-cleavage kobs at 10000 uM GlcN6P [s⁻¹]
1,A6G G35C U46C,< 1e-05
2,A39C G44C C68A,< 1e-05
3,C10U C16U A39C U65C,< 1e-05
4,C8U A15C G32U A36U A39C A48U,< 1e-05
5,C11A G44U C67U,4.33e-05 ± 2.1e-05
6,G40U G62U C68G,< 1e-05
7,G7U A14U G38C U57C G60U C67U,< 1e-05
8,A12G G40A U55C,9.22e-05 ± 2e-05
9,U30A G32A G41C G51C C61A C71U,< 1e-05
10,U31C G40U G66A,0.00025 ± 7.4e-05
11,U47G G59A,3.68e-05 ± 1.3e-05
12,A12G U57C C58G,2.94e-05 ± 1.4e-05
13,A64G G66C C67A,0.000252 ± 7.2e-05
14,A33U G41C A52U A53C,< 1e-05
15,C11U U31G U49A G62A,< 1e-05
16,A52U A53C G62C,< 1e-05
17,C10A U45A U46C C70A,< 1e-05
18,C11U C34A G43C,< 1e-05
19,A12G A42G A52G,2.4e-05 ± 1.2e-05
20,A6U G9A G29C C50U U69G,9.44e-05 ± 3.8e-05
21,C16A U30G C34U,< 1e-05
22,A36C U57A,< 1e-05
23,C50U C61U C67U,< 1e-05
24,A42G U55C G60A,4.43e-05 ± 1.7e-05

row,Variant,self-cleavage kobs at 10000 uM GlcN6P [s⁻¹]
1,C34U G38C G60C,< 1e-05
2,G41C C58A C61U,< 1e-05
3,A5U A39C U65G C68U,4.87e-05 ± 1.6e-05
4,A36C G41U C50G G60U C61G,< 1e-05
5,G37A U45A C61U C67U,< 1e-05
6,C8U A12U A42C C70U,< 1e-05
7,A15U G43A A64U C68G,< 1e-05
8,A12G G29A U46C,6.56e-05 ± 1.2e-05
9,A15G C16U U47C U65A U69C,6.04e-05 ± 2.9e-05
10,G9A A15U A39G A52U G60U,< 1e-05
11,G29U G60A C61A,< 1e-05
12,G38A A42G U49A,< 1e-05
13,G32U A53G U65A,5.88e-05 ± 1.9e-05
14,U57C U65C C71A,< 1e-05
15,A33C G38A C58A,< 1e-05
16,A42G C58G G66A,5.14e-05 ± 1.9e-05
17,C58G G62U,< 1e-05
18,A15C A42G U47G A53G,0.000696 ± 9.1e-05
19,G9U C34G C70G,< 1e-05
20,G44C C70U C71A,< 1e-05
21,C11G C50G C68G C71U,8.16e-05 ± 1.7e-05
22,G29U A48G G51A,< 1e-05
23,A1C U2A A3U G7A C8G G9C C10G C16G,< 1e-05
24,C8U U30G G43C,< 1e-05

row,Variant,self-cleavage kobs at 10000 uM GlcN6P [s⁻¹]
1,A15G A33G G59U,< 1e-05
2,G13U U46C,3.18e-05 ± 1.1e-05
3,G13U G37C G43C,< 1e-05
4,A15C G41U G66A,0.000194 ± 4.9e-05
5,U30G G37C U45A A52G,< 1e-05
6,G7U A42U C67G,< 1e-05
7,A12C C16U A53C G63A,< 1e-05
8,C11G G29A G41U C50G U56G C67U,< 1e-05
9,A42G A48U U55G,0.000404 ± 8.1e-05
10,G32C G35C U49C C68A,< 1e-05
11,G38A G51A,< 1e-05
12,U31A A39G U55C,0.0297 ± 0.011
13,U31G A36U C67A C68G,6.42e-05 ± 1.5e-05
14,A36C U56C,< 1e-05
15,G40C A64G C71U,0.00117 ± 0.00019
16,A14G U49G U55C,0.00199 ± 0.00057
17,G37U C58G,< 1e-05
18,A14U A52C U57A C71U,< 1e-05
19,A6U G59A U69G,< 1e-05
20,G9C U54G,< 1e-05
21,G9U G13A U55G,< 1e-05
22,C8G C16U C68A,< 1e-05
23,U30G A42U,3.53e-05 ± 8.7e-06
24,G7A A64G,4.09e-05 ± 9.6e-06

row,Variant,self-cleavage kobs at 10000 uM GlcN6P [s⁻¹]
1,C11U G29U G40U G62U,< 1e-05
2,C11A G13U A53G C67U C68G,3.78e-05 ± 1.7e-05
3,C8A G13A U46A,< 1e-05
4,A14C U31A U69G,5.33e-05 ± 1.5e-05
5,A12U G29C U46A,0.000658 ± 0.00018
6,A14U A48C U55A,3.3e-05 ± 1.5e-05
7,U54A G66A C68A,9.65e-05 ± 1.7e-05
8,U56G G60C,< 1e-05
9,G32U U55A C58G,0.000755 ± 0.00011
10,G13U A15U G62A C68A C70G,< 1e-05
11,U30G U47C U54C C67U,5.7e-05 ± 2.2e-05
12,U30C U31G A33G U69G,< 1e-05
13,G38A G43C U65G,< 1e-05
14,G38A A52U U56G,< 1e-05
15,G29C U45A U46A A52U,3.37e-05 ± 1.4e-05
16,G13U G44U U45G C58A C71G,< 1e-05
17,C10G U55C,< 1e-05
18,C16U G62C,< 1e-05
19,A33C G43A G44C C61A C67U,< 1e-05
20,A12C A39U A48C,4.14e-05 ± 1e-05
21,G35C C50A G51A,< 1e-05
22,G9U A33U G40A C58U,< 1e-05
23,A14G G29A U30C A39G,4.63e-05 ± 1.6e-05
24,G38U C50G C67A C71G,0.000322 ± 6.1e-05

row,Variant,self-cleavage kobs at 10000 uM GlcN6P [s⁻¹]
1,A14C A39U U47C C70U,0.00047 ± 6.5e-05
2,U47G U54G G62U,< 1e-05
3,C58A G60C,< 1e-05
4,G51C U54G C70A,< 1e-05
5,C16G C67A C70U,9.5e-05 ± 2.1e-05
6,A14C G35C G38U C61U G63U U65A C71G,< 1e-05
7,A48C C58A C61U,< 1e-05
8,C8U U45G C50U U65C,< 1e-05
9,G44A U46A,0.000375 ± 6.2e-05
10,A6U A39U U54A G60U,< 1e-05
11,A12U G44U A52G,4.49e-05 ± 1.9e-05
12,G37A G44A,2.6e-05 ± 1.2e-05
13,C11G G13U C61G,< 1e-05
14,G29U A39C G40A G66A,6.36e-05 ± 1.3e-05
15,U46A A48G,3.66e-05 ± 1.3e-05
16,A14C U55G C67G,0.000215 ± 3.8e-05
17,C8G A15U A39U G51A A52G G60U,< 1e-05
18,G43C U45G A48U C50U C58U C67U,< 1e-05

# Source: the supplement of paper PMC7125110
